Measured values taken from patent publication US20140370022A1 (SAMSUNG LIFE PUBLIC WELFARE FOUNDATION, published 2014).

What was measured:
[1] = target: T1, Control (BSA) (Bos taurus, UniProt P02769); assay: ELISA, 5 ug/ml scFv on coated Control (BSA), anti-HA-HRP
T1 construct: coated as control protein; also called BSA protein
Procedure: (§1) By using the produced scFv protein, the binding affinity to human/mouse c-Met extracellular domain+Fc protein was confirmed through ELISA. Human/mouse c-Met coated on a 96-well plate were treated with 5 μg/ml of scFv proteins (1F12, 2A01, 2C03, and 2D05), followed by binding at room temperature for 1 hour. After that, the plate was washed three times with 0.1% TBST solution, and then treated with anti-HA-HRP antibody for 1 hour, to detect the scFv proteins that bind to c-Met. After that, the plate was washed three times, and then treated with 10 μl of TMB substrate, followed by standing for 5 minutes. The reaction was stopped by using sulfuric acid solution, and then the absorbance was determined by ELISA reader. As a result, it was verified that each scFv protein had significant binding affinity to human and mouse c-Met proteins as compared with the control group (IgG, BSA) (FIG. 5A). In addition, after the cells were treated with 500 ng/ml of each scFv protein using human c-Met protein to which Fc region was not bound, the same ELISA assay was conducted.

[2] = target: c-Met protein (species and construct not stated); assay: SPR, Biacore T100, c-Met amine-coupled on CM5 chip, scFv as analyte
Sequence of c-Met protein (species and construct not stated) (P08581 whole entry, the tested form may be a part): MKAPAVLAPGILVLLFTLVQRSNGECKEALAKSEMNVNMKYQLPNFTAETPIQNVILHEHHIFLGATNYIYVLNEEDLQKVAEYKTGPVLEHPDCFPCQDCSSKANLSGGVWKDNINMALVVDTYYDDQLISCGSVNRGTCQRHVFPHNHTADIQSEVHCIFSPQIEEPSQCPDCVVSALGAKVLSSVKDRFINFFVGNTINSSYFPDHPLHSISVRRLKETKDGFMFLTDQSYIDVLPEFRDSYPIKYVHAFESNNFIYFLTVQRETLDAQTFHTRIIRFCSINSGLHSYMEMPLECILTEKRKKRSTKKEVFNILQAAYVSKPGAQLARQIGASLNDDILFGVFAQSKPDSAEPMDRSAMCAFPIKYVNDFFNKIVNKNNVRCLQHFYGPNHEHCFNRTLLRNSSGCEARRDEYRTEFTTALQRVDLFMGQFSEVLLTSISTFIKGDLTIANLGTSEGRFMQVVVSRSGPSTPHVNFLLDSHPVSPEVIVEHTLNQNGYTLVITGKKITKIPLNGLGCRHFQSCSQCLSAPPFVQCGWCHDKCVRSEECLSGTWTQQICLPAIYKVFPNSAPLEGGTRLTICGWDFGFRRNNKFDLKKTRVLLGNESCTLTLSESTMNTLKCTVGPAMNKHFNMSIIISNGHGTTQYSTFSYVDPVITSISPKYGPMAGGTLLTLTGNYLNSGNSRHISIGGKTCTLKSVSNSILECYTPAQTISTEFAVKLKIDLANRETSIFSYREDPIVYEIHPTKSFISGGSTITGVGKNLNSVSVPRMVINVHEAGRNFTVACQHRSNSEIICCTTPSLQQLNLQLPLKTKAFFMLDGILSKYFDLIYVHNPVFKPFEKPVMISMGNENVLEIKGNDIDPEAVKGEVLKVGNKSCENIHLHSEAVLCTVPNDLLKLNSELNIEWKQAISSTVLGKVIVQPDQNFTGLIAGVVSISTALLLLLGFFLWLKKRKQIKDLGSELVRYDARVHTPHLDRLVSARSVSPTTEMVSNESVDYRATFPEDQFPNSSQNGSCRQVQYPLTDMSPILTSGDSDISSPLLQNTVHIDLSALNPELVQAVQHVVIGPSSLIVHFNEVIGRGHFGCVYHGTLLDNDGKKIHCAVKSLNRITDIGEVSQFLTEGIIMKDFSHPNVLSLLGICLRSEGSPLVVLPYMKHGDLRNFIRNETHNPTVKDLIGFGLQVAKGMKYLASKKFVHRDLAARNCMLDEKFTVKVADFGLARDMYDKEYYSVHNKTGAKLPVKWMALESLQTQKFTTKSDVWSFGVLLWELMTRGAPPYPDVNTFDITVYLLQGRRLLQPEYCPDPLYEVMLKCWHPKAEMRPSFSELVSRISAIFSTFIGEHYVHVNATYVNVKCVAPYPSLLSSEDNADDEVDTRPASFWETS
Description: For the confirmation of more accurate binding affinity (coupling constant), the binding affinity of respective clones to c-Met was verified through surface plasmon resonance analysis. Respective antibody fragments were expressed in the host E. coli, followed by purification, and then dialyzed with PBS solution. Biacore T100 (GE healthcare) was used for the analysis. The c-Met protein was fixed to a dextran medium through an amine coupling reaction in the CM5 sensor chip. […] Based on these values, kinetic analysis was conducted through the BIA-evaluation program. As a result, the KD values of the 1F12 and 2A01 clones were measured to be 6⁻⁹×10⁻⁸ M and the Kd value of 2C03 was verified to be 10⁻⁷ M (Table 4).

[3] = target: T2, human c-Met-Fc protein (human c-Met extracellular domain + Fc) (human, UniProt P08581 25-932); assay: ELISA, scFv titrated 2-fold from 500 ng/ml on coated human c-Met, anti-HA-HRP, no HGF
T2 construct: extracellular domain; also called c-Met extracellular domain+Fc protein; not shown: Fc region of IgG
T2 sequence (P08581 25-932): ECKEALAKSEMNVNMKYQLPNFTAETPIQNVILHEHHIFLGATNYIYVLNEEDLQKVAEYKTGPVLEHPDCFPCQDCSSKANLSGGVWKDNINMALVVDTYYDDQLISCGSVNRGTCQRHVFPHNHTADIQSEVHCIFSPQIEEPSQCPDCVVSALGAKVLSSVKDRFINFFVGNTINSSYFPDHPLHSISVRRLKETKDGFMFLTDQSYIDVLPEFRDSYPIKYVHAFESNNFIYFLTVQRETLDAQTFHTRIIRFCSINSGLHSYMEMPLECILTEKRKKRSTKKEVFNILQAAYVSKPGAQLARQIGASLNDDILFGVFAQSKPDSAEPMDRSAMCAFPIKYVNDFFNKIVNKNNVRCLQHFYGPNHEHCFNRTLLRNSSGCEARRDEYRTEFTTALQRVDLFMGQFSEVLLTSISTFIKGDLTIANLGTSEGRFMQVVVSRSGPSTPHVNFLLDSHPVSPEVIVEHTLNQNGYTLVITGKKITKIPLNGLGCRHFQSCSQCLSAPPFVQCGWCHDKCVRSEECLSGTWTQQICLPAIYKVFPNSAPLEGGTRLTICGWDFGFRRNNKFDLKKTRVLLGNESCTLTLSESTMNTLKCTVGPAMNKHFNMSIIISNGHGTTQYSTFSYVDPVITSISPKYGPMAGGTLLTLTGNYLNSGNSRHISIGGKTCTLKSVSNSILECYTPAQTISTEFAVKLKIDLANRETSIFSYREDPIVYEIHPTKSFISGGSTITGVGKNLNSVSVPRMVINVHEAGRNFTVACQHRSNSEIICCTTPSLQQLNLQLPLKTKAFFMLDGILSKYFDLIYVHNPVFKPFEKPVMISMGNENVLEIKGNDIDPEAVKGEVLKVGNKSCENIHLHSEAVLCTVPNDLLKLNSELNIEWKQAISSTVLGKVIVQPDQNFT
Procedure: as §1, with “Human/mouse c-Met coated on a 96-well plate were treated with 5 μg/ml of scFv proteins (1F12, 2A01, 2C03, and 2D05), followed by binding at room temperature for 1 hour.” left out
For the verification of whether the selected scFv proteins have competitive binding affinity with the hepatocyte growth factor, which is the ligand of c-Met, the ligand competitive ELISA experiment was conducted. As in examples 2 and 4, the coated human c-Met was prepared, and respective wells were treated with samples in which each scFv protein was diluted at a 2-fold dilution from 500 ng/ml to about 1 ng/ml. After the treatment, the experiment procedure was conducted as in Example 4.

[4] = target: T3, mouse c-Met-Fc protein (mouse c-Met extracellular domain + Fc) (mouse, UniProt P16056 25-931); assay: ELISA, periplasmic scFv-pIII extract on coated mouse c-Met-Fc, anti-HA-HRP, OD450 as ratio to control coat (BSA, IgG)
T3 construct: extracellular domain; not shown: Fc region of IgG
T3 sequence (P16056 25-931): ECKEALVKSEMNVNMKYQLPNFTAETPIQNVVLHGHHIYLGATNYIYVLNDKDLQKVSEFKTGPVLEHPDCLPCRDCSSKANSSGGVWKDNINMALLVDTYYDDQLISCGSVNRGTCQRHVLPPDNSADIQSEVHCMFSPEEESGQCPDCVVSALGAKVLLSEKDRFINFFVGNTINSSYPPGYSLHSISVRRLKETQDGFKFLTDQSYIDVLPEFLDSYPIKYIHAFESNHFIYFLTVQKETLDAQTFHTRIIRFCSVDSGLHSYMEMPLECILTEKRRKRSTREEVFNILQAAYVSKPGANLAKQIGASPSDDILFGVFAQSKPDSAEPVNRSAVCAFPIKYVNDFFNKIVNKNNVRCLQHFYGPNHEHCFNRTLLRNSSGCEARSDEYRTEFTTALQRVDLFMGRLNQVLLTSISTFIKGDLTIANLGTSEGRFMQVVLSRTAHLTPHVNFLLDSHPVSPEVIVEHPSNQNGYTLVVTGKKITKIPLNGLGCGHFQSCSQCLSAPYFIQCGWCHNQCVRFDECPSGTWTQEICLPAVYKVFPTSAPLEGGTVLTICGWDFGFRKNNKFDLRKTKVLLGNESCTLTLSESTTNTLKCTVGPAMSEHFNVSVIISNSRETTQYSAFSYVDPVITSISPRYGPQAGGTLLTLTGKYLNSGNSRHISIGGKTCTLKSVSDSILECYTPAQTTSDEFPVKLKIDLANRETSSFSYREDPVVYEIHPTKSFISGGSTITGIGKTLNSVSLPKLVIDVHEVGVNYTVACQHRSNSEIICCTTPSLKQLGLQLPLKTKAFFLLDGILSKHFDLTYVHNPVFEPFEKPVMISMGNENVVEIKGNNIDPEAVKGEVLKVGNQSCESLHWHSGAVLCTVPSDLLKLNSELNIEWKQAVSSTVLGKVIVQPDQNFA
Procedure: After a total of six rounds of panning with mouse/human c-Met were finished, the phage particles collected from the final round of panning were confirmed as colonies in the medium through infection of host cells. These colonies were taken and inoculated in a 96 well plate containing 200 μl of SB/ampicillin media and then cultured (37° C., within 3 hours). After that, for the induction of scFv-pIII protein expression, 1 mM final concentration IPTG was added to each well, followed by culturing overnight at 30° C. After that, the cultured plate was centrifuged to discard the supernatant. Then, for the collection of periplasmic fractions from the cultured cells in each well, the culture plate was treated with 40 μl of TES solution (20% w/v sucrose, 50 mM Tris, 1 mM EDTA, pH 8.0) maintained at 4° C., and then kept to stand at 4° C. for 30 minutes, so that the cells were lysed. After that, the cells were treated with 60 μl of 0.2×TES solution, and then kept to stand for 30 minutes. Finally, the plate was centrifuged and the supernatant was collected, thereby producing scFv-pIII protein on a small scale.
At the same time, a 96 well plate coated with human or mouse c-Met-Fc protein was prepared, and then 25 μl of aliquot was taken from the collected periplasmic fractions and added to each well, followed by binding for 1 hour. Then, after three or four times of washing procedures were performed using TBST, anti-HA-HRP antibody was added, followed by binding for 1 hour. The plate was again washed, followed by induction of a color development reaction (TMB substrate), and then the values of color development were measured at O.D. 450 nm. […] Since antibody in which c-Met extracellular domain binds to Fc region of IgG was used at the time of the panning, commercialized antibody (Erbitux) or BSA protein was used as a control group in order to exclude the phage particles that bind to Fc region.

T1 sequence (P02769 25-607 limits assumed): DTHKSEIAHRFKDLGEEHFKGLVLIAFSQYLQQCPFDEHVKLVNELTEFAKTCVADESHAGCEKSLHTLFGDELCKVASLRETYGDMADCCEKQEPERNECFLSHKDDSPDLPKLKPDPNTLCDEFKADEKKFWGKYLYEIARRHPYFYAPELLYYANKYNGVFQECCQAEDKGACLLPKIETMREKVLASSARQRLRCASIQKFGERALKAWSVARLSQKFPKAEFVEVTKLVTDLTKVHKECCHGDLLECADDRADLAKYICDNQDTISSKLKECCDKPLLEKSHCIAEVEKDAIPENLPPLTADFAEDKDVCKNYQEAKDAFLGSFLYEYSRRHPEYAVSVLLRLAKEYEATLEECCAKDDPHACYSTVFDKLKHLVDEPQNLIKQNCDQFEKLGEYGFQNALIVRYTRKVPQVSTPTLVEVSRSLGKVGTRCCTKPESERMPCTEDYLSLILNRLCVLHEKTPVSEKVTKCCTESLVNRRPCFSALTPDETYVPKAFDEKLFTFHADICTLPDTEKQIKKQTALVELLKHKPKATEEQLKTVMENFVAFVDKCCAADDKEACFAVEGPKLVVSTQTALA

B1: 1F12 scFv antibody fragment (scFv)
scFv: EVQLLESGGGLVQPGGSLRLSCAASGFTFSNYAMSWVRQAPGKGLEWVSGISYSGGSTYYADSVKGRFTISRDNSKNTLYLQMNSLRAEDTAVYYCAKASRSCQRPACSYANGMDVWGQGTLVTVSSGGGGSGGGGSGGGGSQSVLTQPPSASGTPGQRVTISCTGSSSNIGNNYVTWYQQLPGTAPKLLIYYNNHRPSGVPDRFSGSKSGTSASLAISGLQSEDEADYYCGSWDYSLSAYVFGGGTKLTVL
notes: Soluble scFv of about 28 kDa expressed in E. coli TOP10F' and purified over Ni-NTA; also called 1F12 clone
[1]
  binding result: no binding (tested: 5 ug/ml)
[2]
  Kd: 93.3 nM
[3]
  EC50 (read off the curve): ~0.04 µg/mL
[4]
  binding result: binds

B2: 2A01 scFv antibody fragment (scFv)
scFv: EVQLLESGGGLVQTGGSLRLSCAASGFTFSSYDMSWVRRAPGKGLEWVSWISHGGSSISYADSVKGRFTISRDNSKNTLYLQMNSLRAEDTAVYYCAKDAYPIRQETFDYWGQGTLVTVSSGGGGSGGGGSGGGGSQSVLTQPPSASGTPGQRVTISCSGSSSNIGNNDVSWYQQLPGTAPKLLIYPDSQRPSGVPDRFSGSKSGTSASLAISGLRSEDEADYYCASWDSSLSGYVFGGGTKLTVL
notes: Soluble scFv of about 28 kDa expressed in E. coli TOP10F' and purified over Ni-NTA; also called 2A01 clone; 2A1
[1]
  binding result: no binding (tested: 5 ug/ml)
[2]
  Kd: 66 nM
  koff: 0.153 s⁻¹
  kon: 2.32e+06 M⁻¹ s⁻¹
[4]
  binding result: binds

B3: 2C03 scFv antibody fragment (scFv)
scFv: EVQLLESGGGLVQPGGSLRLSCAASGFTFSNYAMSWVRQAPGKGLEWVSAISYDSGSIYYADSVKGRFTISRDNSKNTLYLQMNSLRAEDTAVYYCAKAARSCRNWSCSYANGMDVWGQGTLVTVSSGGGGSGGGGSGGGGSQSVLTQPPSASGTPGQRVTISCTGSSSNIGSNYVSWYRQLPGTAPKLLIYSDSNRPSGVPDRFSGSKSGTSASLAISGLRSEDEADYYCGSWDDSLSGYVFGGGTKLTVL
notes: Soluble scFv of about 28 kDa expressed in E. coli TOP10F' and purified over Ni-NTA; also called 2C03 clone; 2CO3
[1]
  binding result: no binding (tested: 5 ug/ml)
[2]
  Kd: 239 nM
  koff: 0.186 s⁻¹
  kon: 776000 M⁻¹ s⁻¹
[4]
  binding result: binds
